The record followed here is patent publication US20130101601A1 (ANAPTYSBIO, published 2013).

A word on the Kd: it is the concentration at which binding is half-saturated. High values mean weaker binding, low ones tighter binding.

Positions count from the first letter of the chain named. Names and notes keep the numbering of the source.

Experiment [1] has as its target T1, human βNGF (Nerve Growth Factor) (human, UniProt P01138 122-241, limits assumed).
T1 construct: In the FACS rounds it was used biotinylated, fluorochrome-labelled or fused to wasabi fluorescent protein; The construct used in the Biacore runs is not described; also called hβNGF
Kind of experiment: Biacore and flow cytometry-based antigen-binding assays. (SPR reads the build-up and loss of mass on a sensor chip optically.)

The target of experiment [2] is T1, human βNGF (Nerve Growth Factor). Kind of experiment: kinetic characterization (Biacore).
Experiment [3] has the same target. Kind of experiment: Biacore, purified antibody captured at low density (Rmax<30). From the text: Mutations observed in both strategies not utilized by APE803 were recombined by overlap extension PCR in a combinatorial library, each HC/LC pair was expressed and characterized on Biacore utilizing direct capture of secreted antibodies.

T1 sequence (P01138 122-241 limits assumed): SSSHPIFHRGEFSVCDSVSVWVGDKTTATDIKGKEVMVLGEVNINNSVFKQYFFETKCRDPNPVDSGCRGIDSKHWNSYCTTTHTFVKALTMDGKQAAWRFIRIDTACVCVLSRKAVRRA

B1: APE391 (antibody, V domains shown)
VH: QVQLVQSGAEVKKPGSSVKVSCKASGGTFSNYAISWVRQAPGQGLEWMGGIIPIFGTANYAQKFQGRVTITADESTSTAYMELSSLRSEDTAVYYCARGPEYYDYVWGSYRYNYFDYWGQGTLVTV
VL: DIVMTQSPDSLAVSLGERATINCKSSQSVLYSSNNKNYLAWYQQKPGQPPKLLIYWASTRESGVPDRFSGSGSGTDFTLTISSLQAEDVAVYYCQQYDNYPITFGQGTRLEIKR
notes: Fully human IgG; also called HC/LC pair from SCC C10A
As to B1, the binding result in experiment [1] was “binds”.

B2: APE583 (antibody, V domains shown)
VH: B1 VH with L45F
VL: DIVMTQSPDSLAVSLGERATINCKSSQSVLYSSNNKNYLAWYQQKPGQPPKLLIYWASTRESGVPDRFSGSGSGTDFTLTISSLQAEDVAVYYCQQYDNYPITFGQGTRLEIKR
notes: APE391 with the HC mutation L45F
For B2, the binding result in experiment [2] is recorded as “binds”.

B3: APE803 (antibody, V domains shown)
VH: QVQLVQSGAEVKKPGSSVKVSCKASGDTFSNYATGDTFSNYAISWVRQAPGQGFEWMGGIIPIFGTANYAQKFQGRVTITADESTSTAYMELSSLRSEDTAVYYCARGPEYYAYVWGSYRYNYFDYWGQGTLVTV
VL: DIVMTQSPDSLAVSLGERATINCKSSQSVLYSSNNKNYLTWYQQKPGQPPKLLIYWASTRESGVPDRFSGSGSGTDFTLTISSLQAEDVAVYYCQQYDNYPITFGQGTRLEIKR
notes: HC CDR3 mutation D100A in the context of the APE646 variant
As for B3, in experiment [2], the equilibrium dissociation constant (Kd) came to 0.76 nM and the “fold improvement in kon (against APE646)” value was determined as 100 fold.

B4: APE925 (antibody, V domains shown)
VH: B3 VH with S30N, G53R, G65D, S86N, R120S
VL: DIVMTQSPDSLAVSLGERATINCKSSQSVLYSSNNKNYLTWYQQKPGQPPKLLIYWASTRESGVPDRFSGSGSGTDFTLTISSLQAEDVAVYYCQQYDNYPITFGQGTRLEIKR
In turn, B4 yielded a Kd in experiment [3] of 0.025 nM.
